{
  "source": "patent US10588972B2",
  "about": "“Phthalocyanine probes and uses thereof” (LI-COR, INC., priority 2014, dated 2020)",
  "molecules": {"B1": {"name": "700DX-EGF (conjugate, UniProt P01133 23-1207, looked up)", "Pro-epidermal growth factor": "PQHWSCPEGTLAGNGNSTCVGPAPFLIFSHGNSIFRIDTEGTNYEQLVVDAGVSVIMDFHYNEKRIYWVDLERQLLQRVFLNGSRQERVCNIEKNVSGMAINWINEEVIWSNQQEGIITVTDMKGNNSHILLSALKYPANVAVDPVERFIFWSSEVAGSLYRADLDGVGVKALLETSEKITAVSLDVLDKRLFWIQYNREGSNSLICSCDYDGGSVHISKHPTQHNLFAMSLFGDRIFYSTWKMKTIWIANKHTGKDMVRINLHSSFVPLGELKVVHPLAQPKAEDDTWEPEQKLCKLRKGNCSSTVCGQDLQSHLCMCAEGYALSRDRKYCEDVNECAFWNHGCTLGCKNTPGSYYCTCPVGFVLLPDGKRCHQLVSCPRNVSECSHDCVLTSEGPLCFCPEGSVLERDGKTCSGCSSPDNGGCSQLCVPLSPVSWECDCFPGYDLQLDEKSCAASGPQPFLLFANSQDIRHMHFDGTDYGTLLSQQMGMVYALDHDPVENKIYFAHTALKWIERANMDGSQRERLIEEGVDVPEGLAVDWIGRRFYWTDRGKSLIGRSDLNGKRSKIITKENISQPRGIAVHPMAKRLFWTDTGINPRIESSSLQGLGRLVIASSDLIWPSGITIDFLTDKLYWCDAKQSVIEMANLDGSKRRRLTQNDVGHPFAVAVFEDYVWFSDWAMPSVMRVNKRTGKDRVRLQGSMLKPSSLVVVHPLAKPGADPCLYQNGGCEHICKKRLGTAWCSCREGFMKASDGKTCLALDGHQLLAGGEVDLKNQVTPLDILSKTRVSEDNITESQHMLVAEIMVSDQDDCAPVGCSMYARCISEGEDATCQCLKGFAGDGKLCSDIDECEMGVPVCPPASSKCINTEGGYVCRCSEGYQGDGIHCLDIDECQLGEHSCGENASCTNTEGGYTCMCAGRLSEPGLICPDSTPPPHLREDDHHYSVRNSDSECPLSHDGYCLHDGVCMYIEALDKYACNCVVGYIGERCQYRDLKWWELRHAGHGQQQKVIVVAVCVVVLVMLLLLSLWGAHYYRTQKLLSKNPKNPYEESSRDVRSRRPADTEDGMSSCPQPWFVVIKEHQDLKNGGQPVAGEDGQAADGSMQPTSWRQEPQLCGMGTEQGCWIPVSSDKGSCPQVMERSFHMPSYGTQTLEGGVEKPHSLLSANPLWQQRALDPPHQMELTQ", "modifications": "Pro-epidermal growth factor IRDye 700DX conjugate"}},
  "type_in_all_cases": "cell-based",
  "key": {"A431 cells [1]": {"tested_on": "A431 cells", "assay": "Photodynamic therapy effect on cell morphology and viability (Example 3)", "details": "for effect on cell morphology: probe 0.25 μM", "description": "This example illustrates the effect of photodynamic therapy based on IRDye® 700DX dye conjugates on cell morphology. Other methods for evaluating changes in morphology during the PDT with additional tests of key apoptotic markers including caspase 3/7, annexin-V, vitality %, mitochondrial potential, localization (intracellular/membrane, endosomal, lysosomal), singlet oxygen generation, other radicals, etc. It was critical to identify important parameters for generating reproducible effects including irradiation level, incubation time, probe type and/or required dose to initiate cytotoxicity. By measuring these key indicators the actions of IRDye® 700DX in its ability to induce cytotoxicity was defined.\nFIGS. 6A-6B provide images of the controls which were A431 cells with no irradiation (NI) or with irradiation (I). The probe dose for the respective treatments was 0.25 μM and irradiation level was 16 J/cm^2. […] These are key features of cells undergoing apoptosis and/or necrosis."}, "A431 cells [2]": {"tested_on": "A431 cells", "assay": "Cytotoxicity and localization of antibody probe versus small protein ligand probe after irradiation (Example 4)", "procedure": "Both probes can bind EGFR and had approximately 2 dye molecule per conjugate molecule. It was assumed that the affinity for the receptor will be different for the antibody (generally pM), compared to the small protein (nM). Although the probe doses were different, the incubation times were the same at only 10 min. After incubation, the probes were rinsed from the cells. FIGS. 7A and 7B illustrates A431 cells that were incubated with IRDye 700DX-panitumumab or IRDye 700DX-EGF, respectively and thereafter irradiated.\nThus, upon irradiation, the production of singlet oxygen occurred at the cell surface. Typically, the EGF ligand is internalized after binding the EGF receptor."}, "A431 cells [3]": {"tested_on": "A431 cells", "procedure": "A different LED source was tested and evaluated to determine if a second source of LED would yield a similar effect as the standard LED used. A straight forward evaluation was set up with four treatments (treatments A-D). The tests were performed in triplicate in order to examine reproducibility. The test included the following four treatments: treatment A of no probe and irradiation, treatment B of IRdye® 700DX-labeled EGF and no irradiation, treatment C of IRDye® 700DX-labeled EGF and irradiation, and treatment D of IRDye® 700DX-labeled panitumumab and irradiation. The probe dose was about 0.1 μM labeled panitumumab and 0.5 μM 700DX-labeled EGF. Irradiation was for 10 minutes at an irradiation dose of 32 J/cm^2.\nSignificant and similar effects for both probes together and in triplicate thus providing clear evidence that IRDye® 700DX-labeled small protein can kill cells similarly to an IRDye 700DX-labeled antibody. Conditions for use of either probe may be unique to the individual probe. […] The fluorescent scale of the 700 nm images was the same for both treated sets of cells (FIGS. 12C-12D). Although the exact concentration of the antibody probe is not known, the signals from the different probes appear similar in level and intensity."}, "A431 cells [4]": {"tested_on": "A431 cells", "assay": "VB-48 assay: vitality, viability and necrosis of treatments 1-10 (Table 3)", "details": "irradiated (I) 32 J/cm^2; RGD 0.5 μM, EGF 0.5 μM, NHSe 5 μM, Pan ~0.1 μM", "procedure": "Briefly, A431 cells were labeled with respective probes for specific treatments (listed below); cells were rinsed and evaluated for labeling. The test include the following treatments: […], treatments 3-4 of EGF-IRDye® 700DX at 0.5 μM and radiation, treatments 5-6 of IRDye® 700DX NHSe at 5 μM and radiation, treatments 7-8 of panitumumab-IRDye® 700DX at about 0.1 μM and radiation, treatment 9 of a negative control with no probe and no irradiation, and treatment 10 of RGD-IRDye® 700DX and no irradiation. The probes were incubated for about 10 minutes and with a longer period of about 20 minutes for the RGD probe. The cells were monitored with microscopy and morphology was examination 24 hours post treatment.\nLow binding was expected for the RGD probe due to the low level of integrin receptors on A431 cells. […] By 3 hours post-irradiation all treatments except RGD (Treatment 1) show significant cytotoxicity. Vitality, viability and necrosis assays such as a VB-48 assay and JC-1 assay were performed."}, "A431 cells [5]": {"tested_on": "A431 cells", "assay": "Caspase 3/7 assay, doses of IRDye 700DX-labeled EGF (Table 4)", "details": "Irradiation about 32 J/cm^2", "procedure": "A431 cells were treated with IRDye® 700DX-labeled EGF at a concentration of about 0.1-1 μM for about 8 minutes and irradiated at about 32 J/cm^2.\nBriefly, 150,000 cells were plated and incubated overnight at 37° C., 5% CO2. About 1 ml of the probe was added to the appropriate treatments. The cells were rinsed after the incubation period and imaged. The cells were irradiated with a small LED apparatus. The cells were further incubated at 37° C., 5% CO2, and then imaged at 2-3 hours post irradiation. The cells were then harvested and resuspended in 250 μl PBS. The cells were counted in NC-100™ NucleoCounter® (ChemoMetec A/S; Allerod, Denmark). The cells were analyzed according to manufacturer's protocol to perform the caspase3/7 assay (ImmunoChemistry Technologies, LCC, Bloomington, Minn.). NC indicates negative control, e.g., no probe."}, "[6]": {"details": "no irradiation (NI), 700DX-EGF 0.5 μM"}},
  "note": "Where “and” joins values, the source holds several entries; their conditions need not be identical. Equal entries are not always repeated. Where two headings read alike, the source gives them in different places.",
  "data": [
    {"molecule": "B1", "values": [
      {"measurement": "cytotoxicity by cell viability", "setting": "A431 cells [1]; 24 h post irradiation", "result": "only the probe treated with irradiation induced cytotoxicity"},
      {"measurement": "effect on cell morphology", "setting": "A431 cells [1]; irradiation 16 J/cm^2", "result": "dramatically altered with condensation of nuclei and cell dehydration"},
      {"measurement": "effect on cell morphology", "setting": "A431 cells [1]; no irradiation (NI)", "result": "no deleterious effect on cell morphology"},
      {"measurement": "dead irradiated cells", "setting": "A431 cells [2]; 10 min incubation, panitumumab probe about 0.1 μM, EGF probe 0.5 μM, 24 hours post irradiation", "result": 36, "unit": "%"},
      {"measurement": "necrotic cells after irradiation", "setting": "A431 cells [2]; irradiation 24 J/cm^2 (figure legend)", "result": 36, "unit": "%"},
      {"measurement": "effect on cells (morphology)", "setting": "A431 cells [3]; irradiated 10 minutes, 32 J/cm^2", "result": "severely affected by the irradiating energy and were dying"},
      {"measurement": "Cells/mL", "setting": "A431 cells [3]; irradiated (I) 10 minutes, 32 J/cm^2, 700DX-EGF 0.5 μM, 700DX-Pan about 0.1 μM", "result": "2.8 × 10^5 Cells/mL and 4.1 × 10^5 Cells/mL and 3.8 × 10^5 Cells/mL"},
      {"measurement": "% Vitality", "setting": "A431 cells [3]; [6]", "result": "97.9% and 98.3% and 96.0%"},
      {"measurement": "Cells/mL", "setting": "A431 cells [3]; [6]", "result": "6.6 × 10^5 Cells/mL and 8.0 × 10^5 Cells/mL and 7.7 × 10^5 Cells/mL"},
      {"measurement": "VB-48 % necrotic", "setting": "A431 cells [3]; [6]", "result": "11% and 12% and 10%"},
      {"measurement": "% Healthy", "setting": "A431 cells [4]", "result": 60, "unit": "%"},
      {"measurement": "% Necrotic", "setting": "A431 cells [4]", "result": 20, "unit": "%"},
      {"measurement": "Cells/mL", "setting": "A431 cells [4]", "result": "3.4 × 10^5 Cells/mL"},
      {"measurement": "Est % Viability", "setting": "A431 cells [4]", "result": "60-70%"},
      {"measurement": "Low % Vitality", "setting": "A431 cells [4]", "result": 19, "unit": "%"},
      {"measurement": "% Healthy", "setting": "A431 cells [5]; 0.1 μM", "result": 72, "unit": "%"},
      {"measurement": "% Necrotic", "setting": "A431 cells [5]; 0.1 μM", "result": 10, "unit": "%"},
      {"measurement": "Cells/mL", "setting": "A431 cells [5]; 0.1 μM", "result": "4.6 × 10^5 Cells/mL"},
      {"measurement": "Early % Apoptotic", "setting": "A431 cells [5]; 0.1 μM", "result": 8, "unit": "%"},
      {"measurement": "Late % Apoptotic", "setting": "A431 cells [5]; 0.1 μM", "result": 11, "unit": "%"},
      {"measurement": "% Healthy", "setting": "A431 cells [5]; 0.25 μM", "result": 61, "unit": "%"},
      {"measurement": "% Necrotic", "setting": "A431 cells [5]; 0.25 μM", "result": 16, "unit": "%"},
      {"measurement": "Cells/mL", "setting": "A431 cells [5]; 0.25 μM", "result": "4.8 × 10^5 Cells/mL"}
    ]}
  ]
}
